Tests used:
CD8+ and CD4+ T cells = test: Endogenous autologous normal donor restimulation assay (Ad5-transduced dendritic cells plus autologous Pan-T cells); assay type: cell-based, human; details: Table 27, restimulation with overlapping 15-mer peptide pools, highest frequency across sixteen normal donors
Description: (5% CO2). The following day, DC cells were counted and plated in a 96 well round bottom microplate at a concentration of 30,000 viable cells per well. […] (5% CO2). […] Autologous CD3+ Pan-T cells isolated from human normal PBMCs were thawed using media.
Plates were incubated at 37° C. […] (5% CO2).
The cells were washed with PBS and stained with Live/Dead Fixable Aqua Dead Cell stain (Thermo-Fisher).

[1] = test system: CD8+ T cells in PBMCs from patients with metastatic castrate-resistant prostate cancer; test: Patient PBMC restimulation assay (in vitro immunogenicity of neoantigens); assay type: cell-based, human; parameters: Maximum frequency of TNFα+IFNγ+CD8+ T cells: unit not given here; details: for Maximum fold change over: fold change over negative control, highest across the PBMC donors evaluated, 9 mer peptide; for Maximum frequency of TNFα+IFNγ+CD8+ T cells: greatest frequency among all tested PBMC donors, negative control 0.011-0.8
Description: In Vitro Immunogenicity Assessment of Neoantigens (“Patient PBMC Restimulation Assay”)
PBMCs from human patients with metastatic castrate-resistant prostate cancer were thawed using media (RPMI 1640 supplemented with Glutamax, 10% HI FBS, and 1× Sodium Pyruvate). Cells were counted and plated in a 96 well round bottom microplate at a concentration of 250,000 viable cells per well. Lyophilized peptides were solubilized in 100% DMSO and diluted in media to 10 μg/mL. Neoantigen peptides were added in equal volume to PBMCs for a final concentration of 5 μg/mL. CEF Peptide Pool “Plus” (Cellular Technologies, Ltd.) was utilized as a positive control and DMSO at the same final concentration as the experimental peptides was utilized as a negative control. Human IL-15 (Peprotech) was added to all wells at final concentration of 10 ng/mL.
Plates were incubated at 37° C. (5% CO2) for a total of 13 days. Media was refreshed every 2 days with IL-15 (10 ng/mL final concentration) and IL-2 (R&D systems, 10 IU/mL final concentration). On day 12, PBMCs were re-stimulated with identical experimental peptides or controls, at same concentration as peptide stimulation on Day 1. After 1-hour incubation, protein Inhibitor Cocktail (eBioscience) was added to every well and plate was incubated overnight.
On day 13, cells were stained for intracellular flow cytometry analysis. The cells were washed with PBS and stained with Live/Dead Fixable Aqua Dead Cell stain (Thermo-Fisher). Following the live/dead stain, cells were blocked using Biotin-Free Fe Receptor Blocker (Accurate Chemical & Scientific Corp). Extracellular cellular flow panel (1 μL/antibody per well in 50 μL) consisted of CD3 PerCP-Cy5.5 (Biolegend), CD4 BV421 (Biolegend), and CD8 APC-Cy7 (Biolegend). After extracellular staining, cells were fixed using Foxp3/Transcription Factor Staining Buffer Set (eBioscience) and stained for intracellular proteins (1:50 dilution) using TNFα FITC (R&D Systems) and IFNγ BV785 (Biolegend). Cells were washed and resuspended in stain buffer and analyzed using a BD Celesta flow cytometer.
Flow cytometry cell staining analysis was completed using FlowJo v10. Cells were gated on live, singlet, CD3+ cells. The CD8+ T cells were analyzed for TNFα/IFNγ expression and the frequency of double positive TNFα/IFNγ CD8+ T cells was recorded. Responses were assessed to be positive when the frequency of double positive TNFα/IFNγ CD8+ T cells due to stimulation with an experimental peptide was increased greater than or equal to 2-fold over the DMSO only negative control for that patient. Peptides were analyzed in 1 to 7 patient samples.
The 9 mer fragments shown in Table 13 were assessed for their ability to activate T cells using the Patient PBMC restimulation assay described in Example 1 using TNFα and IFNγ production by CD8^+ T cells as a readout. Self-antigens shown in Table 15 were also used in the assays. […] PBMCs from ten patients were evaluated.

HLA-A*02:01 = HLA-A*02:01 (Homo sapiens, UniProt P04439, D140Y/D185E/D98H/E176V/E277Q/G131W/G231S/I119V/I121R/I166T/I218V/L300P/L318F/N151K/N90K/P208A/P217A/Q86G/Q94H/R138H/R169H/T345S); test: In vitro binding of neoantigens to class I MHC (UV peptide exchange, HLA class I ELISA); details: 100% = same binding affinity as positive control peptide
Description: (§1) In Vitro Binding of Neoantigens to Class I MHC
(§2) The 9 mer peptides identified by bioinformatics analysis were analyzed for their binding propensities to 6 common HLA class I alleles (HLA-A*01:01, A*02:01, A*03:01, A*24:02, B*07:02, B*08:01). The principle of the method is briefly described below and consists of two parts, one involving exchange of peptide with a positive control induced by Ultraviolet (UV) radiation, and the second is an enzyme immunoassay to detect stable HLA-peptide and empty HLA complexes.
(§3) HLA-bound peptides are critical for the stability of the HLA complex.
(§4) The exchange efficiency between the peptide of interest and Pos was analyzed using an HLA class I ELISA. The combined technologies allowed the identification of ligands for an HLA molecule of interest which are potentially immunogenic.
(§5) The UV control represented UV-irradiation of conditional HLA class I complex in the absence of a rescue peptide. […] To this end streptavidin was bound onto polystyrene microtiter wells. After washing and blocking, HLA complex present in exchange reaction mixtures or ELISA controls was captured by the streptavidin on the microtiter plate via its biotinylated heavy chain. Non-bound material was removed by washing. Subsequently, horseradish peroxidase (HRP)-conjugated antibody to human B2M was added. […] In the latter case B2M was removed during the washing step. After removal of non-bound HRP conjugate by washing, a substrate solution was added to the wells. A coloured product formed in proportion to the amount of intact HLA complex present in the samples. After the reaction was terminated by the addition of a stop solution, absorbance was measured in a microtiter plate reader. […] Suboptimal HLA binding of peptides with a moderate to low affinity for HLA class I molecules can also be detected by this ELISA technique (Rodenko, B et al. (2006) Nature Protocols 1: 1120-32).
(§6) Binding of select neoepitopes to HLA-A*01:01, HLA-A* 02:01, HLA-A* 03:01, HLA-A*24:02, HLA-1B*07:02 and HLA-1B*08:01 was evaluated using the assay described in Example 1. […] As a criterion for further evaluation, peptides with an exchange rate of at least 10% with the corresponding Pos peptide for at least one of the 6 HLA alleles that we considered for further evaluation. […] Higher percentages correspond to stronger binding to the HLA allele.

HLA-A*24:02 = HLA-A*24:02 (Homo sapiens, UniProt P04439, D101N/D140Y/D185E/E176V/E190D/F33S/G103R/G107R/I119L/I121M/I306V/K335N/L105A/L180Q/L300P/N151K/N90K/Q86E/Q94H/R106L/R138H/R89G/T104I/T345S/V100E/W191G/Y123F); test: as above; details: 100% = same binding affinity as positive control peptide
Description: as §1, §2, §3, §4, §5, §6

HLA-B*07:02 = HLA-B*07:02 (Homo sapiens, UniProt P01889); test: as above; details: 100% = same binding affinity as positive control peptide
Description: as §1, §2, §3, §4, §5, §6

HLA-A*03:01 = HLA-A*03:01 (Homo sapiens, UniProt P04439); test: as above; details: 100% = same binding affinity as positive control peptide
Description: as §1, §2, §3, §4, §5, §6

HLA-A*01:01 = HLA-A*01:01 (Homo sapiens, UniProt P04439, A114D/A174V/A182V/D101N/D185E/E176A/E190D/L180R/Q94H/R68K/S129P/T187R/V100A/V91M/W191G); test: as above; details: 100% = same binding affinity as positive control peptide
Description: as §1, §2, §3, §4, §5, §6

Row | Molecule | Maximum Frequency of TNFα/IFNγ Double Positive CD4+30 T cells (CD8+ and CD4+ T cells) | Maximum fold change over [1] | Maximum frequency of TNFα+IFNγ+CD8+ T cells [1] | Exchange rate with Pos peptide, HLA-A*02:01 (HLA-A*02:01) [%] | Exchange rate with Pos peptide, HLA-A*24:02 (HLA-A*24:02) [%] | Exchange rate with Pos peptide, HLA-B*07:02 (HLA-B*07:02) [%] | Exchange rate with Pos peptide, HLA-A*03:01 (HLA-A*03:01) [%] | Exchange rate with Pos peptide, HLA-A*01:01 (HLA-A*01:01) [%] | Immunogenic ([1]; patient PBMC restimulation, CD8+ T cells)
1 | DGHSYTSKVNCLLLQDGFHGCVSITGAAGRRNLSIFLFLMLCKLEFHAC (listed as Homo sapiens) [AS55, splice variant SPOCK1] | 0.063 | – | – | – | – | – | – | – | –
2 | WKFEMSYTVGGPPPHVHARPRHWKTDR (listed as Homo sapiens) [AS18, splice variant NWD1] | 0.046 | – | – | – | – | – | – | – | –
3 | YEAGMTLGGKILFFLFLLLPLSPFSLIF (listed as Homo sapiens) [Neoantigen P87, AR-Intron] | 0.079 | 3.24 | 0.120 | 64 | 0.2 | 5 | 2.4 | 1.1 | –
4 | SLYHREKQLIAMDSAI (listed as Homo sapiens) [Neoantigen P22, 5LC45A3-ELK4] | – | 5.00 | 0.120 | 46.9 | 0 | 8.3 | 4.8 | 4.4 | –
5 | VFFKRAAEGFFRMNKLKESSDTNPKPYCMAAPMGLTENNRNRKKSYRETNLKAVSWPLNHT [P76] (peptide, listed as Homo sapiens, AR-V3) VFFKRAAEGFFRMNKLKESSDTNPKPYCMAAPMGLTENNRNRKKSYRETNLKAVSWPLNHT | – | 2.30 | 0.170 | 85.9 | −0.5 | 91.5 | 6 | 0.1 | Yes
6 | WTPIPVLTRWPLPHPPPWRRATSCRMARSSPSATSGSSVRRRCSSLPSWVWNLAASTRPRSTPS (peptide, listed as Homo sapiens, TMEM222-LOC644961) WTPIPVLTRWPLPHPPPWRRATSCRMARSSPSATSGSSVRRRCSSLPSWVWNLAASTRPRSTPS | – | 5.00 | 0.480 | 8.2 | 0.1 | 91.3 | 4.1 | 5.2 | –

Reference: patent publication US12582683B2, “Prostate neoantigens and their uses” (Jansen Biotech, Inc., priority 2019, dated 2026)
